Consider 15 molecules from patent US20100169988A1 (published 2010).

Sequences and labels used below:
B1: Tubulin beta-4 chain (other, mouse, UniProt Q9D6F9 1-444, looked up)
chain: MREIVHLQAGQCGNQIGAKFWEVISDEHGIDPTGTYHGDSDLQLERINVYYNEATGGNYVPRAVLVDLEPGTMDSVRSGPFGQIFRPDNFVFGQSGAGNNWAKGHYTEGAELVDAVLDVVRKEAESCDCLQGFQLTHSLGGGTGSGMGTLLISKIREEFPDRIMNTFSVVPSPKVSDTVVEPYNATLSVHQLVENTDETYCIDNEALYDICFRTLKLTTPTYGDLNHLVSATMSGVTTCLRFPGQLNADLRKLAVNMVPFPRLHFFMPGFAPLTSRGSQQYRALTVPELTQQMFDAKNMMAACDPRHGRYLTVAAVFRGRMSMKEVDEQMLSVQSKNSSYFVEWIPNNVKTAVCDIPPRGLKMAATFIGNSTAIQELFKRISEQFTAMFRRKAFLHWYTGEGMDEMEFTEAESNMNDLVSEYQQYQDATAEEGEFEEEAEEEVA
notes: also called TBB4_MOUSE
B2: ATP synthase alpha chain; mitochondrial precursor (enzyme, mouse, UniProt Q03265 44-553, looked up)
chain: QKTGTAEMSSILEERILGADTSVDLEETGRVLSIGDGIARVHGLRNVQAEEMVEFSSGLKGMSLNLEPDNVGVVVFGNDKLIKEGDVVKRTGAIVDVPVGEELLGRVVDALGNAIDGKGPIGSKTRRRVGLKAPGIIPRISVREPMQTGIKAVDSLVPIGRGQRELIIGDRQTGKTSIAIDTIINQKRFNDGTDEKKKLYCIYVAIGQKRSTVAQLVKRLTDADAMKYTIVVSATASDAAPLQYLAPYSGCSMGEYFRDNGKHALIIYDDLSKQAVAYRQMSLLLRRPPGREAYPGDVFYLHSRLLERAAKMNDSFGGGSLTALPVIETQAGDVSAYIPTNVISITDGQIFLETELFYKGIRPAINVGLSVSRVGSAAQTRAMKQVAGTMKLELAQYREVAAFAQFGSDLDAATQQLLSRGVRLTELLKQGQYSPMAIEEQVAVIYAGVRGYLDKLEPSKITKFENAFLSHVISQHQSLLGNIRSDGKISEQSDAKLKEIVTNFLAGFEP
B3: Elongation factor 1-alpha 2 (EF-1-alpha-2) (Elongation factor 1 A-2) (eEF1A-2) (Statin S1) (other, mouse, UniProt P62631 2-463, looked up)
chain: GKEKTHINIVVIGHVDSGKSTTTGHLIYKCGGIDKRTIEKFEKEAAEMGKGSFKYAWVLDKLKAERERGITIDISLWKFETTKYYITIIDAPGHRDFIKNMITGTSQADCAVLIVAAGVGEFEAGISKNGQTREHALLAYTLGVKQLIVGVNKMDSTEPAYSEKRYDEIVKEVSAYIKKIGYNPATVPFVPISGWHGDNMLEPSPNMPWFKGWKVERKEGNASGVSLLEALDTILPPTRPTDKPLRLPLQDVYKIGGIGTVPVGRVETGILRPGMVVTFAPVNITTEVKSVEMHHEALSEALPGDNVGFNVKNVSVKDIRRGNVCGDSKADPPQEAAQFTSQVIILNHPGQISAGYSPVIDCHTAHIACKFAELKEKIDRRSGKKLEDNPKSLKSGDAAIVEMVPGKPMCVESFSQYPPLGRFAVRDMRQTVAVGVIKNVEKKSGGAGKVTKSAQKAQKAGK
notes: also called EF1A2_MOUSE
B4: ATP synthase e chain, mitochondrial (enzyme, mouse, UniProt Q06185 2-71, looked up)
chain: VPPVQVSPLIKFGRYSALIIGMAYGAKRYSYLKPRAEEERRIAAEEKKRLDELKRIERELAEAQDDSILK
notes: also called epsilon chain
B5: Peroxiredoxin-5, mitochondrial precursor (Prx-V) (enzyme, mouse, UniProt P99029 49-210, looked up)
chain: MAPIKVGDAIPSVEVFEGEPGKKVNLAELFKGKKGVLFGVPGAFTPGCSKTHLPGFVEQAGALKAKGAQVVACLSVNDVFVIEEWGRAHQAEGKVRLLADPTGAFGKATDLLLDDSLVSLFGNRRLKRFSMVIDNGIVKALNVEPDGTGLTCSLAPNILSQL
notes: also called PRDX5_MOUSE
B6: Superoxide dismutase [Cu-Zn] (enzyme)
chain: not shown
B7: 2',3'-cyclic-nucleotide 3'-phosphodiesterase (CNPase) (enzyme, mouse, UniProt P16330 1-417, looked up)
chain: MNTSFTRKSHTFLPKLFFRKMSSSGAKEKPELQFPFLQDEDTVATLHECKTLFILRGLPGSGKSTLARLILEKYHDGTKMVSADAYKIIPGSRADFSEAYKRLDEDLAGYCRRDIRVLVLDDTNHERERLDQLFEMADQYQYQVVLVEPKTAWRLDCAQLKEKNQWQLSADDLKKLKPGLEKDFLPLYFGWFLTKKSSETLRKAGQVFLEELGNHKAFKKELRHFISGDEPKEKLELVSYFGKRPPGVLHCTTKFCDYGKAAGAEEYAQQEVVKRSYGKAFKLSISALFVTPKTAGAQVVLTDQELQLWPSDLDKPSASEGLPPGSRAHVTLGCAADVQPVQTGLDLLDILQQVKGGSQGEAVGELPRGKLYSLGKGRWMLSLTKKMEVKAIFTGYYGKGKPVPIHGSRKGGAMQIC
notes: also called CN37_MOUSE
B8: Sodium/potassium-transporting ATPase alpha-2 chain precursor (Sodium pump 2) (Na+/K+ ATPase 2) (Alpha(+)) (enzyme)
chain: not shown
notes: also called AT1A2_MOUSE
B9: 14-3-3 protein theta (14-3-3 protein tau) (other, mouse, UniProt P68254 1-245, looked up)
chain: MEKTELIQKAKLAEQAERYDDMATCMKAVTEQGAELSNEERNLLSVAYKNVVGGRRSAWRVISSIEQKTDTSDKKLQLIKDYREKVESELRSICTTVLELLDKYLIANATNPESKVFYLKMKGDYFRYLAEVACGDDRKQTIENSQGAYQEAFDISKKEMQPTHPIRLGLALNFSVFYYEILNNPELACTLAKTAFDEAIAELDTLNEDSYKDSTLIMQLLRDNLTLWTSDSAGEECDAAEGAEN
notes: also called 14-3-3 θ
B10: Excitatory amino acid transporter 1 (Sodium-dependent glutamate/aspartate transporter) (GLAST) (other, mouse, UniProt P56564 1-543, looked up)
chain: MTKSNGEEPRMGGRMERLQQGVRKRTLLAKKKVQSLTKEDVKSYLFRNAFVLLTVTAVIVGTILGFALRPYKMSYREVKYFSFPGELLMRMLQMLVLPLIISSLVTGMAALDSKASGKMGMRAVVYYMTTTIIAVVIGIIIVIIIHPGKGTKENMYREGKIVQVTAADAFLDLIRNMFPPNLVEACFKQFKTSYEKRSFKVPIQSNETLLGAVINNVSEAMETLTRIREEMVPVPGSVNGVNALGLVVFSMCFGFVIGNMKEQGQALREFFDSLNEAIMRLVAVIMWYAPLGILFLIAGKIVEMEDMGVIGGQLAMYTVTVIVGLLIHAVIVLPLLYFLVTRKNPWVFIGGLLQALITALGTSSSSATLPITFKCLEENNGVDKRITRFVLPVGATINMDGTALYEALAAIFIAQVNNFDLNFGQIITISITATAASIGAAGIPQAGLVTMVIVLTSVGLPTDDITLIIAVDWFLDRLRTTTNVLGDSLGAGIVEHLSRHELKNRDVEMGNSVIEENEMKKPYQLIAQDNEPEKPVADSETKM
notes: also called EAA1_MOUSE
B11: 14-3-3 protein eta (other, mouse, UniProt P68510 2-246, looked up)
chain: GDREQLLQRARLAEQAERYDDMASAMKAVTELNEPLSNEDRNLLSVAYKNVVGARRSSWRVISSIEQKTMADGNEKKLEKVKAYREKIEKELETVCNDVLALLDKFLIKNCNDFQYESKVFYLKMKGDYYRYLAEVASGEKKNSVVEASEAAYKEAFEISKEHMQPTHPIRLGLALNFSVFYYEIQNAPEQACLLAKQAFDDAIAELDTLNEDSYKDSTLIMQLLRDNLTLWTSDQQDEEAGEGN
notes: also called 14-3-3 η
B12: MKIAA0820 protein (Fragment) (other, mouse, UniProt Q8BZ98 1-863, looked up)
chain: MGNREMEELIPLVNRLQDAFSALGQSCLLELPQIAVVGGQSAGKSSVLENFVGRDFLPRGSGIVTRRPLVLQLVTSKAEYAEFLHCKGKKFTDFDEVRHEIEAETDRVTGMNKGISSIPINLRVYSPHVLNLTLIDLPGITKVPVGDQPPDIEYQIRDMIMQFITRENCLILAVTPANTDLANSDALKLAKEVDPQGLRTIGVITKLDLMDEGTDARDVLENKLLPLRRGYVGVVNRSQKDIDGKKDIKAAMLAERKFFLSHPAYRHIADRMGTPHLQKVLNQQLTNHIRDTLPNFRNKLQGQLLSIEHEVEAFKNFKPEDPTRKTKALLQMVQQFAVDFEKRIEGSGDQVDTLELSGGAKINRIFHERFPFEIVKMEFNEKELRREISYAIKNIHGIRTGLFTPDMAFEAIVKKQIVKLKGPSLKSVDLVMQELINTVKKCTKRLANFPRLCEETERIVANHIREREGKTKDQVLLLIDIQVSYINTNHEDFIGFANAQQRSSQVHKKSTIGNQVIRKGWLTVSNIGIMKGGSKGYWFVLTAESLSWYKDDEEKEKKYMLPLDNLKVRDVEKGFMSSKHVFALFNTEQRNVYKDYRFLELACDSQEDVDSWKASLLRAGVYPDKSVGSNKTENDENGQAENFSMDPQLERQVETIRNLVDSYMSIINKCIRDLIPKTIMHLMINNVKDFINSELLAQLYSSEDQNTLMEESAEQAQRRDEMLRMYQALKEALAIIGDINTATVSTPAPPPVDDSWLQHSRRSPPPSPTTQRRLTISAPLPRPTSGRGPAPAIPSPGPHSGAPPVPFRPGPLPPFPNSSDSFGAPPQVPSRPTRAPPSVPSRRPPPSPTRPTIIRPLESSLLD
notes: also called Q80TR2_MOUSE
B13: Myosin light chain kinase 2, skeletal/cardiac muscle (MLCK2) (Fragment) (enzyme, mouse, UniProt Q8VCR8 1-613, looked up)
chain: MTTENGAVELGSQSLSTEQTPKAAAGDGPSASEKEPSAPATEKDLSPPNAKKDPGAPDPKNNPDPPSLKKDPAKAPGPEKKGDPVPASASSQGPSGEGDGGGGPAEGSEGPPAALPLPTATAEASIQKLDPTQAPSGNQGSGEAKAGKKAAECREAGRRGSPAFLHSPSCPAIISCSEKTLAVKPLSETTDLVFTGVSVTPDPQDPGPVKAGGTNALAEKKKEEAEKASGQAGQAKVQGDTPQRIGFQAVPSERVEVGQALCLTAREEDCFQILDDCPPPPAPFPHRIVELRTGNVNSEFSMNSKEALGGGKFGAVCTCTERATGLKLAAKVIKKQTPKDKEMVLLEIEVMNQLNHRNLIQLYAAIETSHEIILFMEYIEGGELFERIVDEDYHLTEVDTMVFVRQICDGILFMHKMRVLHLDLKPENILCVNTTGHLVKIIDFGLARRYNPNEKLKVNFGTPEFLSPEVVNYDQISDKTDMWSLGVITYMLLSGLSPFLGDDDTETLNNVLSANWYFDEETFEAVSDEAKDFVSNLLTKDQSARMSAEQCLAHPWLNNLAEKAKRCNRRLKSQILLKKYLMKRRWKKNFIAVSAANRFKKISSSGALMALGV
notes: also called MYLK2_MOUSE
B14: 14-3-3 protein beta/alpha (Protein kinase C inhibitor protein 1) (KCIP-1) (other, mouse, UniProt Q9CQV8 1-246, looked up)
chain: MTMDKSELVQKAKLAEQAERYDDMAAAMKAVTEQGHELSNEERNLLSVAYKNVVGARRSSWRVISSIEQKTERNEKKQQMGKEYREKIEAELQDICNDVLELLDKYLILNATQAESKVFYLKMKGDYFRYLSEVASGENKQTTVSNSQQAYQEAFEISKKEMQPTHPIRLGLALNFSVFYYEILNSPEKACSLAKTAFDEAIAELDTLNEESYKDSTLIMQLLRDNLTLWTSENQGDEGDAGEGEN
notes: also called 14-3-3 β
B15: Neuronal membrane glycoprotein M6-b (M6b) (other, mouse, UniProt P35803 1-328, looked up)
chain: MKPAMETAAEENTEQSQERKVNSRAEMEIGRYHWMYPGSKNHQYRPVPNLGDRAGPLSSPGCFECCIKCLGGVPYASLVATILCFSGVALFCGCGHVALAGTVAILEQHFSTNTSDHALLSEVIQLMQYVIYGIASFFFLYGIILLAEGFYTTSAVKELHGEFKTTACGRCISGMFVFLTYVLGVAWLGVFGFSAVPVFMFYNIWSTCEVIKSPQSNGTSGVEQICVDVRQYGIIPWNAFPGKICGSALENICNTNEFYMSYHLFIVACAGAGATVIALIHFLMILSSNWAYLKDASKMQAYQDIKAKEEQELQDIQSRSKEQLNSYT
notes: also called Proteolipid protein PLP/dm-20

One test has as its target T1, APP-TAP-AICD (human, UniProt P05067 18-695). In words: streptavidin purification of APP-TAP-AICD from brain homogenate; iTRAQ 116/114, transgenic mouse 75 vs control mouse 72; MALDI-TOF/TOF.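 Further: relative protein abundance in the transgenic versus control pull-down, limited to proteins with high quality scores and above-average enrichment, without full normalization across the whole measurement.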
As to B1, the iTRAQ ratio was 3.22.
The same measure, in the same setting: as for B2, the figure is 3.39.

The target of another test is T1, APP-TAP-AICD. In words: streptavidin purification of APP-TAP-AICD from brain homogenate; LTQ-FT semiquantitative method, transgenic mouse 75 vs control mouse 72.
As to B3, the “probability that this protein is enriched” value amounted to 1.
With B4, the “probability that this protein is enriched” value was 0.88.
On the same count and under the same terms, under B5 stands 1; under B6, 1.
B7: the “probability that this protein is enriched” value stood at 0.87.
Turning to B8, the “probability that this protein is enriched” value turned out to be 0.88.
The same measure, in the same setting: as for B9, the figure is 1; as for B10, 1.
B11: the “probability that this protein is enriched” value came to 1.
For the molecule B12, the “probability that this protein is enriched” value turned out to be 1.
On the same count and under the same terms, under B13 stands 1.
Still for that read-out and setting: as for B14, the figure is 1; as for B15, 0.87.
